According to patent US20250145694A1 (GUANGDONG FEIPENG BIOLOGICAL, published 2025):

What was measured:
[1] = target: T1, CTNI quality control recombinant antigen (human, UniProt P19429 1-210, limits assumed); experiment: BLI, antibody on AMC sensor, cTnI in solution
T1 construct: Recombinant antigen produced by the applicant; also called CTNI quality control recombinant protein (antigen produced by the company); cardiac troponin I
Procedure: With an AMC sensor, the purified antibody was diluted to 10 μg/ml with PBST, and CTNI quality control recombinant protein (antigen produced by the company) was gradient diluted with PBST to 769.2 nmol/ml, 384.6 nmol/ml, 192.3 nmol/ml, 96.2 nmol/ml, 48.1 nmol/ml, 24 nmol/ml, 12 nmol/ml, and 0 nmol/ml.

[2] = target: T1, CTNI quality control recombinant antigen; experiment: indirect ELISA, cTnI coated 1 ug/ml, antibody 0 ng/ml (blank)
Procedure: (§1) CTNI quality control recombinant antigen was diluted to 1 μg/ml with a coating solution and coated a microplate, 100 μL per well, overnight at 4° C.; on the next day, the microplate was washed with a washing solution twice and patted dry; a blocking solution (20% of BSA+80% of PBS) was added, 120 μL per well, 37° C., 1 h, patted dry; the diluted cTnI monoclonal antibodies were added, 100 μL/well, 37° C., 30 min; the microplate was washed with a washing solution 5 times, patted dry; goat anti-mouse IgG-HRP, 100 μL per well, 37° C., 30 min; the microplate was washed with a washing solution 5 times, patted dry; a color-developing solution A (50 μL/well) was added, a color-developing solution B (50 μL/well) was added, 10 min; a stop solution was added, 50 μL/well; OD values were read on microplate reader at 450 nm (reference, 630 nm).

[3] = target: T1, CTNI quality control recombinant antigen; experiment: indirect ELISA, cTnI coated 1 ug/ml, antibody 1.372 ng/ml
Procedure: as §1

[4] = target: T1, CTNI quality control recombinant antigen; experiment: indirect ELISA, cTnI coated 1 ug/ml, antibody 0.457 ng/ml
Procedure: as §1

[5] = target: T1, CTNI quality control recombinant antigen; experiment: indirect ELISA, cTnI coated 1 ug/ml, antibody 0.152 ng/ml
Procedure: as §1

[6] = target: T1, CTNI quality control recombinant antigen; experiment: indirect ELISA, cTnI coated 1 ug/ml, antibody 4.115 ng/ml
Procedure: as §1

[7] = target: T1, CTNI quality control recombinant antigen; experiment: indirect ELISA, cTnI coated 1 ug/ml, antibody 12.346 ng/ml
Procedure: as §1

[8] = target: T1, CTNI quality control recombinant antigen; experiment: indirect ELISA, cTnI coated 1 ug/ml, antibody 0.051 ng/ml
Procedure: as §1

T1 sequence (P19429 whole entry): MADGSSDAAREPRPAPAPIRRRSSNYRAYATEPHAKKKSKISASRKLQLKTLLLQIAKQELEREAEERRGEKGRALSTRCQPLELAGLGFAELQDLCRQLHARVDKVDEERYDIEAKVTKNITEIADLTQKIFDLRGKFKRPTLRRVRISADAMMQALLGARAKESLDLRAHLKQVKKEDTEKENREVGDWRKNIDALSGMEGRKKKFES

Kd [1] [nM] | koff [1] [s⁻¹] | kon [1] [M⁻¹ s⁻¹] | OD450 (reference 630 nm) [2] [OD] | OD450 (reference 630 nm) [3] [OD] | OD450 (reference 630 nm) [4] [OD] | OD450 (reference 630 nm) [5] [OD] | OD450 (reference 630 nm) [6] [OD] | OD450 (reference 630 nm) [7] [OD] | OD450 (reference 630 nm) [8] [OD] | Binder
21.6 | 0.000169 | 7830 | 0.031 | 0.194 | 0.086 | 0.053 | 0.435 | 1.18 | 0.04 | Anti-cTnI 8C4 recombinant antibody (WT) (antibody, mouse IgG1, kappa, Mouse antibody expressed in CHO cells; also called CTNI 8C4 antibody) heavy: EVQMVESGGGLLKPGGSLKLSCAASGFTYSNYAMSWVRQTPEKRLEWVATISTGGSYSYYPDSVKGRFTISRDNAKNTLYLQMLSLRSEDTAMYYCARKDNYYGSTFMDYWGQGSSVTVSSAKTTPPSVYPLAPGSAAQTNSMVTLGCLVKGYFPEPVTVTWNSGSLSSGVHTFPAVLQSDLYTLSSSVTVPSSTWPSQTVTCNVAHPASSTKVDKKIVPRDCGCKPCICTVPEVSSVFIFPPKPKDVLTITLTPKVTCVVVDISKDDPEVQFSWFVDDVEVHTAQTKPREEQFNSTFRSVSELPIMHQDWLNGKEFKCRVNSAAFPAPIEKTISKTKGRPKAPQVYTIPPPKEQMAKDKVSLTCMITNFFPEDITVEWQWNGQPAENYKNTQPIMDTDGSYFVYSKLNVQKSNWEAGNTFTCSVLHEGLHNHHTEKSLSHSPG light: DIQMTQTSSSLSASLGDRVTISCRASQDITQYLNWYQQKPDGTIKLLIYYSSRIHSGVSSRFSGSGSGTDYSLTISNLEQEDIATYFCQQGNTIPLTFDTGTKLELKRADAAPTVSIFPPSSEQLTSGGASVVCFLNNFYPKDINVKWKIDGSERQNGVLNSWTDQDSKDSTYSMSSTLTLTKDEYERHNSYTCEATHKTSTSPIVKSFNRNEC
– | – | – | 0.03 | 0.214 | 0.098 | 0.072 | 0.569 | 1.32 | 0.054 | Mutation 5 (antibody, light chain unchanged from WT; heavy chain assembled FR/CDR/constant) heavy: EVQMVESGGGLLKPGGSLKLSCAASGFTYSNYAMSWVRQTPEKRLEWVATISTGGSYSYYPDSVKGRFTISRDNAKNTLYLQMLSLRSEDTAMYYCARRDNYYGSTFMDYWGQGSSVTVSSAKTTPPSVYPLAPGSAAQTNSMVTLGCLVKGYFPEPVTVTWNSGSLSSGVHTFPAVLQSDLYTLSSSVTVPSSTWPSQTVTCNVAHPASSTKVDKKIVPRDCGCKPCICTVPEVSSVFIFPPKPKDVLTITLTPKVTCVVVDISKDDPEVQFSWFVDDVEVHTAQTKPREEQFNSTFRSVSELPIMHQDWLNGKEFKCRVNSAAFPAPIEKTISKTKGRPKAPQVYTIPPPKEQMAKDKVSLTCMITNFFPEDITVEWQWNGQPAENYKNTQPIMDTDGSYFVYSKLNVQKSNWEAGNTFTCSVLHEGLHNHHTEKSLSHSPG light: DIQMTQTSSSLSASLGDRVTISCRASQDITQYLNWYQQKPDGTIKLLIYYSSRIHSGVSSRFSGSGSGTDYSLTISNLEQEDIATYFCQQGNTIPLTFDTGTKLELKRADAAPTVSIFPPSSEQLTSGGASVVCFLNNFYPKDINVKWKIDGSERQNGVLNSWTDQDSKDSTYSMSSTLTLTKDEYERHNSYTCEATHKTSTSPIVKSFNRNEC
7.04 | 0.000583 | 82800 | 0.039 | 0.785 | 0.307 | 0.129 | 1.6 | 2.02 | 0.088 | Mutation 1 (antibody) heavy: EVQMVESGGGLLKPGGSLKLSCAASGFTYSNYAMSWVRQTPEKRLEWVATISSGGSYSYYPDSVKGRFTISRDNAKNTLYLQMLSLRSEDTAMYYCARRDNYYGSTFMDYWGQGSSVTVSSAKTTPPSVYPLAPGSAAQTNSMVTLGCLVKGYFPEPVTVTWNSGSLSSGVHTFPAVLQSDLYTLSSSVTVPSSTWPSQTVTCNVAHPASSTKVDKKIVPRDCGCKPCICTVPEVSSVFIFPPKPKDVLTITLTPKVTCVVVDISKDDPEVQFSWFVDDVEVHTAQTKPREEQFNSTFRSVSELPIMHQDWLNGKEFKCRVNSAAFPAPIEKTISKTKGRPKAPQVYTIPPPKEQMAKDKVSLTCMITNFFPEDITVEWQWNGQPAENYKNTQPIMDTDGSYFVYSKLNVQKSNWEAGNTFTCSVLHEGLHNHHTEKSLSHSPG light: DIQMTQTSSSLSASLGDRVTISCRASQDITNYLNWYQQKPDGTIKLLIYYTSRIHSGVSSRFSGSGSGTDYSLTISNLEQEDIATYFCQQGNTIPLTFDTGTKLELKRADAAPTVSIFPPSSEQLTSGGASVVCFLNNFYPKDINVKWKIDGSERQNGVLNSWTDQDSKDSTYSMSSTLTLTKDEYERHNSYTCEATHKTSTSPIVKSFNRNEC
– | – | – | 0.029 | 0.208 | 0.098 | 0.069 | 0.456 | 1.21 | 0.061 | Mutation 4 (antibody, light chain unchanged from WT; heavy chain assembled FR/CDR/constant) heavy: EVQMVESGGGLLKPGGSLKLSCAASGFTYSNYAMSWVRQTPEKRLEWVATISSGGSYSYYPDSVKGRFTISRDNAKNTLYLQMLSLRSEDTAMYYCARKDNYYGSTFMDYWGQGSSVTVSSAKTTPPSVYPLAPGSAAQTNSMVTLGCLVKGYFPEPVTVTWNSGSLSSGVHTFPAVLQSDLYTLSSSVTVPSSTWPSQTVTCNVAHPASSTKVDKKIVPRDCGCKPCICTVPEVSSVFIFPPKPKDVLTITLTPKVTCVVVDISKDDPEVQFSWFVDDVEVHTAQTKPREEQFNSTFRSVSELPIMHQDWLNGKEFKCRVNSAAFPAPIEKTISKTKGRPKAPQVYTIPPPKEQMAKDKVSLTCMITNFFPEDITVEWQWNGQPAENYKNTQPIMDTDGSYFVYSKLNVQKSNWEAGNTFTCSVLHEGLHNHHTEKSLSHSPG light: DIQMTQTSSSLSASLGDRVTISCRASQDITQYLNWYQQKPDGTIKLLIYYSSRIHSGVSSRFSGSGSGTDYSLTISNLEQEDIATYFCQQGNTIPLTFDTGTKLELKRADAAPTVSIFPPSSEQLTSGGASVVCFLNNFYPKDINVKWKIDGSERQNGVLNSWTDQDSKDSTYSMSSTLTLTKDEYERHNSYTCEATHKTSTSPIVKSFNRNEC
